Assay results from article PMC10396963, “Fibril formation and ordering of disordered FUS LC driven by hydrophobic interactions” (Nature Chemistry, 2023).

Target: the molecule itself
Assay: atomic force microscopy; film formed from 1.5 uM FUS LC at the air/PBS interface (pH 7.4), 5 h, deposited on a Si wafer and dried; 20 ± 1 °C

B1: FUS low-complexity domain (FUS LC, 1–163 amino acids) (domain or fragment, human, UniProt P35637 1-163, looked up)
chain: MASNDYTQQATQSYGAYPTQPGQGYSQQSSQPYGQQSYSGYSQSTDTSGYGQSSYSSYGQSQNTGYGTQSTPQGYGSTGGYGSSQSSQSSYGQQSSYPGYGQQPAPSSTSGSYGSSSQSSSYGQPQSGSYSQQPSYGGQQQSYGQQQSYNPPQGYGQQNQYNS
notes: Human FUS (fused in sarcoma), N-terminal QGSY-rich low-complexity domain, amino-acid residues 1-163; For FRAP 5% of the protein carried Cy3 (NHS ester); the AFM and BAM samples were unlabelled; also called fused in sarcoma low-complexity domain; wild-type FUS LC; source: E. coli, purified (solubilised in 8 M urea, Ni-NTA, cleaved with tobacco etch virus protease, exchanged to CAPS pH 11)
**Q.** Does B1 bind?
**A.** binds
